Measurements taken from paper PMC10075959.

Columns and labels:
[1] = molecular target: 229E-related bat coronavirus N-protein LRS peptide (comprising the predicted helix) (229E-related bat coronavirus); assay: AUC
[2] = molecular target: MERS N-protein LRS peptide (comprising the predicted helix) (MERS); assay: AUC
[3] = molecular target: SARS-CoV N-protein LRS peptide (comprising the predicted helix) (SARS-CoV); assay: AUC
[4] = molecular target: human coronavirus NL63 N-protein LRS peptide (comprising the predicted helix) (human coronavirus NL63); assay: AUC; sedimentation velocity of peptides at different concentrations, 20°C, 55,000 rpm, working buffer (10.1 mM Na2PO4, 1.8 mM KH2PO4, 2.7 mM KCl, 10 mM NaCl, pH 7.40), also with 10% TFE; c(s) distributions; monomer to oligomer (trimer)
[5] = molecular target: murine hepatitis virus (MHV) N-protein LRS peptide (comprising the predicted helix) (murine hepatitis virus); assay: as above

“229E-related bat coronavirus N-protein LRS peptide (comprising the predicted helix)” was tested, and the stoichiometry N [1] was 3.

“MERS N-protein LRS peptide (comprising the predicted helix)” gave a stoichiometry N [2] of 3.

With “SARS-CoV N-protein LRS peptide (comprising the predicted helix)” the stoichiometry N [3] was 3.

Substance “human coronavirus NL63 N-protein LRS peptide (comprising the predicted helix)” has a stoichiometry N [4] of 3.

“murine hepatitis virus (MHV) N-protein LRS peptide (comprising the predicted helix)” showed a stoichiometry N [5] of 3.
